Experiment [1] has as its target His6-importin α-CyPet / S-His6-importin β (UniProt P52292). Briefly: FRET or BRET.
Experiment [2] addresses 6HisGFP-XCTK2-MBD2^mut (Xenopus) (UniProt P79955). Briefly: co-sedimentation.
In experiment [3] the target is GFP-XCTK2 (full-length, wild type) (Xenopus) (UniProt P79955). Briefly: co-sedimentation.
Experiment [4] deals with doubly stabilized microtubules (GMPCPP and paclitaxel) polymerized from cycled bovine tubulin (bovine, UniProt Q6B856 1-445). Briefly: co-sedimentation.

6 molecules from PMC12206513 (Molecular Biology of the Cell, 2025) can be followed below.

Numbering of substitutions follows the chain as printed.

Sequence of GFP-XCTK2 (full-length, wild type) (Xenopus) (P79955 whole entry): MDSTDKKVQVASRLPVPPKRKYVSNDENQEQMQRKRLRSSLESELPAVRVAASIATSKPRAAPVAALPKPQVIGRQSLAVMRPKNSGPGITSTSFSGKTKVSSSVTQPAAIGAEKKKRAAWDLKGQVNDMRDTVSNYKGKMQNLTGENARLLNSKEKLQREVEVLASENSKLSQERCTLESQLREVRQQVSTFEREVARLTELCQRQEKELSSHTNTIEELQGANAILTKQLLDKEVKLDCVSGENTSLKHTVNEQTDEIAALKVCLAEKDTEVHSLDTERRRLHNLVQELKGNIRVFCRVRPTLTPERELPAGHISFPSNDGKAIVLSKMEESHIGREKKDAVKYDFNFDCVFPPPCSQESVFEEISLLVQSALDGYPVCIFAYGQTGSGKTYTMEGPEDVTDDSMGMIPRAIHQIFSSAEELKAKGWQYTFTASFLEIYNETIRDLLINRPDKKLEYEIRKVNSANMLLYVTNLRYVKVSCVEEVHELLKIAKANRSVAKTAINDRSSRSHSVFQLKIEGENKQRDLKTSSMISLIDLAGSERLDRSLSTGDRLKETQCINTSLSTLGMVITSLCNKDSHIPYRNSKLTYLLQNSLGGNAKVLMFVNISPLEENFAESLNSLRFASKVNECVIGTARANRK

Take “YPet-Tail C2 (from UniProt P79955 62-120) (domain or fragment)”: in experiment [1], the fold higher apparent Kd than YPet-Tail amounted to 8 fold. Turning to “importin α-His6 / S-His6-importin β (from UniProt P52292 1-529; Q14974 1-876) (complex)”, the results for the percent reduction of MT binding by 0.4 µM importin α/β in experiment [2] and in experiment [3] were 43% and 64%, respectively. For the molecule “YPet-Tail C3 (from UniProt P79955 80-120) (domain or fragment)”, in experiment [1], the fold higher apparent Kd than YPet-Tail was determined as 8 fold.

B1: YPet-Tail C2 (domain or fragment, Xenopus, UniProt P79955 62-120, looked up)
chain: APVAALPKPQVIGRQSLAVMRPKNSGPGITSTSFSGKTKVSSSVTQPAAIGAEKKKRAA
On to B1, for which the stoichiometry N (commonly the number of molecules, sites or subunits per partner or assembly) in experiment [4] was 1.1 per tubulin dimer.

B2: YPet-Tail N3 (domain or fragment, Xenopus, UniProt P79955 2-79, looked up)
chain: DSTDKKVQVASRLPVPPKRKYVSNDENQEQMQRKRLRSSLESELPAVRVAASIATSKPRAAPVAALPKPQVIGRQSLA
For the molecule B2, in experiment [4], the “fold higher apparent MT affinity than YPet-Tail C2” value was roughly 2 fold and the “stoichiometry N” value turned out to be 1.1 per tubulin dimer.

B3: YPet-Tail N3-MBD1^mut (domain or fragment)
chain: B2 chain with K18A, R19A, K20A, R33A, K34A, R35A
Turning to B3, the “fold higher Kd than YPet-Tail N3” value in experiment [4] was determined as 10 fold.
